This assay addresses collagen type XI (UniProt P12107 36-1563; P13942 28-1736, hydroxyproline/hydroxylysine expected in native collagen; preparation and processing not stated; alpha3(XI) taken as COL2A1 product). Nature of the assay: ELISA; collagen model peptide or collagen XI coated; COMP or TSP-4 at indicated concentrations in TBS-T with 0.25% BSA, 1 h, room temperature; detected with anti-COMP or anti-TSP-4 antibody; four-parameter logistic fit; apparent KD. Conditions: both partners purified.

B1: cartilage oligomeric matrix protein (COMP), wild type, pentameric (natural protein)
chain: not shown
notes: cartilage oligomeric matrix protein (COMP, TSP-5); residue numbers Asp593-Asp595 as in PDB 3FBY; also called COMP wt; TSP-5; source: HEK293 (EBNA), pCEP vector, serum-free supernatant, purified (Strep-Tactin)
B1: the Kd was found to be 20 nM.

The values are drawn from publication PMC6249252, “COMP and TSP-4 interact specifically with the novel GXKGHR motif only found in fibrillar collagens” (Scientific Reports, 2018).
